# Test results taken from patent US20150203577A1 (Chugai, published 2015).
# Positions count from the first letter of the chain named.
# B1: H237-MB390/MRAL-k0 (antibody, mouse IgG1, kappa)
# heavy: QVQLQESGPGLVKPSETLSLTCAVSGHSISHDHAWSWVRQPPGEGLEWIGFISYSGITNYNPSLQGRVTISRDNSKNTLYLQMNSLRAEDTAVYYCARSLARTTAMDYWGEGTLVTVSSAKTTPPSVYPLAPGSAAQTNSMVTLGCLVKGYFPEPVTVTWNSGSLSSGVHTFPAVLQSDLYTLSSSVTVPSSTWPSETVTCNVAHPASSTKVDKKIVPRDCGCKPCICEPNEVEDVFIFPPKPKDVLTITLTPKVTCVVVDISKDDPEVQFSWFVDDVEVHTAQTQPREEQFNSTFRSVSELPIMHQDWLNGKEFKCRVNSAAFPAPIEKTISKTKGRPKAPQVYTIPPPKEQMAKDKVSLTCMITDFFPEDITVEWQWNGQPAENYKNTQPIMDTDGSYFVYSKLNVQKSNWEAGNTFTCSVLHEGLHNHHTEKSLSHSPGK
# light: not shown
# notes: Template of the MB390 variants; copies: 2 + 2
# B2: H237-MB442/MRAL-k0 (antibody, mouse IgG1, kappa)
# heavy: B1 heavy with P230T, N231Y, K330R
# light: not shown
# notes: copies: 2 + 2
# B3: H237-MB439/MRAL-k0 (antibody, mouse IgG1, kappa)
# heavy: B1 heavy with P230T, N231Y, S263E
# light: not shown
# notes: copies: 2 + 2
# B4: H237-MB451/MRAL-k0 (antibody, mouse IgG1, kappa)
# heavy: B1 heavy with P230T, N231Y, A326G
# light: not shown
# notes: copies: 2 + 2
# B5: H237-MB447/MRAL-k0 (antibody, mouse IgG1, kappa)
# heavy: B1 heavy with P230T, N231Y, S294M
# light: not shown
# notes: copies: 2 + 2
# B6: H237-MB452/MRAL-k0 (antibody, mouse IgG1, kappa)
# heavy: B1 heavy with P230T, N231Y, A326Q
# light: not shown
# notes: copies: 2 + 2
# B7: H237-MB446/MRAL-k0 (antibody, mouse IgG1, kappa)
# heavy: B1 heavy with P230T, N231Y, S294L
# light: not shown
# notes: copies: 2 + 2
# B8: H237-MB448/MRAL-k0 (antibody, mouse IgG1, kappa)
# heavy: B1 heavy with P230T, N231Y, N320D
# light: not shown
# notes: copies: 2 + 2
# B9: H237-MB449/MRAL-k0 (antibody, mouse IgG1, kappa)
# heavy: B1 heavy with P230T, N231Y, N320L
# light: not shown
# notes: copies: 2 + 2
# B10: H237-MB440/MRAL-k0 (antibody, mouse IgG1, kappa)
# heavy: B1 heavy with P230T, N231Y, P267L
# light: not shown
# notes: copies: 2 + 2
# B11: H237-MB445/MRAL-k0 (antibody, mouse IgG1, kappa)
# heavy: B1 heavy with P230T, N231Y, F292T
# light: not shown
# notes: copies: 2 + 2
# B12: H237-MB441/MRAL-k0 (antibody, mouse IgG1, kappa)
# heavy: B1 heavy with P230T, N231Y, A326K
# light: not shown
# notes: copies: 2 + 2
# B13: H237-MB397/MRAL-k0 (antibody, mouse IgG1, kappa)
# heavy: B1 heavy with P230T, N231Y
# light: not shown
# notes: Template of the MB397 variants; copies: 2 + 2
# B14: H237-MB450/MRAL-k0 (antibody, mouse IgG1, kappa)
# heavy: B1 heavy with P230T, N231Y, N320M
# light: not shown
# notes: copies: 2 + 2
# B15: H237-MB444/MRAL-k0 (antibody, mouse IgG1, kappa)
# heavy: B1 heavy with P230T, N231Y, F292N
# light: not shown
# notes: copies: 2 + 2
# B16: H237-MB443/MRAL-k0 (antibody, mouse IgG1, kappa)
# heavy: B1 heavy with P230T, N231Y, F292E
# light: not shown
# notes: copies: 2 + 2
# B17: H237-MB778/MRAL-k0 (antibody, mouse IgG1, kappa)
# heavy: B1 heavy with D235L, S333K
# light: not shown
# notes: mouse IgG1 CH variant; copies: 2 + 2
# B18: H237-MB830/MRAL-k0 (antibody, mouse IgG1, kappa)
# heavy: B1 heavy with D235L, P327F, E329Y
# light: not shown
# notes: as for B17
# B19: H237-MB781/MRAL-k0 (antibody, mouse IgG1, kappa)
# heavy: B1 heavy with D235L, A326K
# light: not shown
# notes: as for B17
# B20: H237-MB885/MRAL-k0 (antibody, mouse IgG1, kappa)
# heavy: B1 heavy with N231A, V233E, D235S
# light: not shown
# notes: as for B17
# B21: H237-MB884/MRAL-k0 (antibody, mouse IgG1, kappa)
# heavy: B1 heavy with V233E, E234S, D235L
# light: not shown
# notes: as for B17
# B22: H237-MB883/MRAL-k0 (antibody, mouse IgG1, kappa)
# heavy: B1 heavy with N231A, V233E, E234S, D235L
# light: not shown
# notes: as for B17
# B23: H237-MB832/MRAL-k0 (antibody, mouse IgG1, kappa)
# heavy: B1 heavy with D235L, P327Y, E329Y
# light: not shown
# notes: as for B17
# B24: H237-MB793/MRAL-k0 (antibody, mouse IgG1, kappa)
# heavy: B1 heavy with E229Q, D235I
# light: not shown
# notes: as for B17
# B25: H237-MB886/MRAL-k0 (antibody, mouse IgG1, kappa)
# heavy: B1 heavy with V233E, D235S
# light: not shown
# notes: as for B17
# Molecular target: T1, mouse FcγRIII extracellular domain, C-terminally His-tagged (mouse, UniProt P08508 31-215)
# T1 construct: the whole entry is named; also called mFcγRIII; mFcgRIII
# T1 chain: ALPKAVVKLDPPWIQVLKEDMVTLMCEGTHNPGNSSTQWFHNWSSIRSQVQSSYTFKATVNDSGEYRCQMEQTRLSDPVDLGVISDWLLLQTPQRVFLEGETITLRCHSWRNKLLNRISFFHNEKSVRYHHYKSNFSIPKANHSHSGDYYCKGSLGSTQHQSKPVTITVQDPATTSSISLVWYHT
# Assay: SPR Biacore T200, KD ratio
# From the text: (§1) The antibody H chain variable region used was the variable region H237 (SEQ ID NO: 1) of the H chain VH3-IgG1 of the anti-IL-6 receptor antibody Fv4-IgG1 described in WO2009/125825. The antibody L chain commonly used was the L chain MRAL-k0 (SEQ ID NO: 2) of the anti-IL-6 receptor antibody tocilizumab. […] The resulting variant groups were designated as MB397 variants and MB390 variants, respectively. These variants were expressed and purified by the method of Reference Example 1 and evaluated for their binding to mFcγRII and mFcγRIII by the method of Reference Example 2 using Biacore T200.
# (§2) Each altered antibody was analyzed for its interaction with each Fcγ receptor prepared above using Biacore T100 (GE Healthcare Japan Corp.), Biacore T200 (GE Healthcare Japan Corp.), Biacore A100, or Biacore 4000. The running buffer used was HBS-EP+ (GE Healthcare Japan Corp.). The assay temperature was set to 25° C. The sensor chips used were chips prepared by immobilizing Protein L (ACTIGEN or BioVision) onto Series S Sensor Chip CM5 (GE Healthcare Japan Corp.) or Series S Sensor Chip CM4 (GE Healthcare Japan Corp.) by the amine coupling method.
# (§3) In order to calculate the KD value of each altered antibody for FcγR, kinetic analysis was conducted according to the following method: first, the antibody of interest was captured onto any of these chips and allowed to interact with mFcγR diluted with a running buffer. For the obtained sensorgram, the assay results were globally fit into the 1:1 Langmuir binding model using Biacore Evaluation Software to calculate an association rate constant ka (L/mol/s) and a dissociation rate constant kd (1/s). From these values, the dissociation constant KD (mol/L) was calculated.
Binder,relative mFcγRIII-binding activity (MB390 = 1),relative mFcγRIII-binding activity (mIgG1 = 1),relative mFcγRIII-binding activity (MB397 = 1)
B1,1 fold,11.9 fold,–
B2,–,26.9 fold,1.39 fold
B3,–,4.5 fold,0.23 fold
B4,–,9.7 fold,0.5 fold
B5,–,31.4 fold,1.63 fold
B6,–,4.4 fold,0.23 fold
B7,–,63.7 fold,3.3 fold
B8,–,25.1 fold,1.3 fold
B9,–,10.7 fold,0.56 fold
B10,–,6.9 fold,0.36 fold
B11,–,13.2 fold,0.68 fold
B12,–,4.1 fold,0.21 fold
B13,–,19.3 fold,1 fold
B14,–,22.7 fold,1.18 fold
B15,–,12.9 fold,0.67 fold
B16,–,15.3 fold,0.79 fold

# Molecular target: T2, mouse FcγRII extracellular domain, C-terminally His-tagged (mouse, UniProt P08101 30-210)
# T2 construct: the whole entry is named; also called mFcγRII; mFcgRII
# T2 sequence: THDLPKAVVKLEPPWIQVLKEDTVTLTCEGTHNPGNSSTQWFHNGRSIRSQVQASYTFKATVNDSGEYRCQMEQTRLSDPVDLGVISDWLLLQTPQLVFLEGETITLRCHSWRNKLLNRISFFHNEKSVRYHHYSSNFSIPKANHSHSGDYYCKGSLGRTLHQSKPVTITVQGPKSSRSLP
# Assay: SPR Biacore T200, KD ratio
# From the text: as §1, §2, §3
Binder,relative mFcγRII-binding activity (MB390 = 1),relative mFcγRII-binding activity (mIgG1 = 1),relative mFcγRII-binding activity (MB397 = 1)
B1,1 fold,522 fold,–
B2,–,884 fold,1.6 fold
B3,–,39.5 fold,0.07 fold
B4,–,60.1 fold,0.11 fold
B5,–,608 fold,1.1 fold
B6,–,46.9 fold,0.08 fold
B7,–,1360 fold,2.45 fold
B8,–,525 fold,0.95 fold
B9,–,154 fold,0.28 fold
B10,–,120 fold,0.22 fold
B11,–,220 fold,0.4 fold
B12,–,39.7 fold,0.07 fold
B13,–,555 fold,1 fold
B14,–,377 fold,0.68 fold
B15,–,231 fold,0.42 fold
B16,–,243 fold,0.44 fold

# Molecular target: T3, mouse FcγRII (mouse, UniProt P08101 30-210)
# T3 construct: also called mFcγRII; mFcgRII
# T3 sequence: T2 sequence
# Assay: SPR (Biacore), antibody captured on Protein L, mFcγR as analyte
Binder,Kd,relative mFcγRII-binding activity (mIgG1 = 1)
B17,34.2 nM,7.21 fold
B18,43.6 nM,4.78 fold
B19,40.5 nM,6.08 fold
B20,111 nM,3.29 fold
B21,148 nM,2.46 fold
B22,164 nM,2.21 fold
B23,40.4 nM,5.16 fold
B24,179 nM,1.37 fold
B25,246 nM,1.47 fold

# Molecular target: T4, mouse FcγRIII (mouse, UniProt P08508 31-215)
# T4 construct: also called mFcγRIII; mFcgRIII
# T4 chain: T1 chain
# Assay: as above
Binder,Kd,relative mFcγRIII-binding activity (mIgG1 = 1)
B17,2540 nM,0.16 fold
B18,3380 nM,0.1 fold
B19,2120 nM,0.19 fold
B20,4350 nM,0.13 fold
B21,5910 nM,0.09 fold
B22,4960 nM,0.11 fold
B23,3050 nM,0.12 fold
B24,5500 nM,0.07 fold
B25,7220 nM,0.08 fold
